± gives the standard deviation.
Assay: protein stability index of a GFP-peptide fusion (GPS, HEK-293T) (PSI 1-6); higher = more stable
[1] = treatment: DMSO, c terminus: a fixed tail appended
[2] = treatment: MLN4924 1 uM, 8 h, c terminus: a fixed tail appended
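Further: 24-mer peptide tiles fused after GFP, lentivirally expressed, FACS-sorted into six equal bins by GFP/DsRed ratio, decoded by Illumina sequencing, PSI is the read-weighted mean bin number.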

Row | Sequence | protein stability index [1] | protein stability index [2] | protein stability index (treatment: DMSO, c terminus: native) | protein stability index (treatment: MLN4924 1 uM, 8 h, c terminus: native)
1 | VGRTGCFIVIDAMLERIKHEKTVD [PTPRD] | 2.25 ± 0.34 | 2.54 ± 0.26 |  | 
2 | DKLSQKSSSSKLSRSPLKIVKKPK [EPB41L3] | 4.3 ± 0.66 | 4.79 ± 0.23 |  | 
3 | SRGYAYRDNGHSNRDEHSSRGYRN [RBMY1A1] | 4.31 ± 0.16 | 4.21 ± 0.12 |  | 
4 | WGLEEEDFQPREEAMLYHNQTAEL [P3H4] | 4.61 ± 0.084 | 4.5 ± 0.48 |  | 
5 | YEFNPDFLEEAHEWNQKRARKAMR [N4BP2L1] | 3.88 ± 0.2 | 4.19 ± 0.29 |  | 
6 | IYVHILKDTRMAEEYCHKHYDRNK [VPS39] | 2.19 ± 0.39 | 2 ± 0.28 |  | 
7 | HCHIEESEHVLKKAHKYSELIILY [VPS39] | 2.21 ± 0.33 | 2.12 ± 0.3 |  | 
8 | PTDYQVNIQIIEYEKKQTLGQNDT [BTBD1] | 3.76 ± 0.27 | 3.91 ± 0.13 |  | 
9 | LPPCLLPLSPPTAPDRATAVATAS [TRIB3] | 4.45 ± 0.31 | 4.35 ± 0.26 |  | 
10 | EQILELLVLEQFLTILPTEIETWV [ZNF449] | 3.15 ± 0.38 | 2.73 ± 0.52 |  | 
11 | DSFDKFDFCEPSFVTGNCLEISPD [PCMTD2] | 4.36 ± 0.12 | 4.66 ± 0.46 |  | 
12 | TQPTHGQFALTNGDPLNCHSYLSG [NR2F2] | 3.69 ± 0.17 | 3.87 ± 0.23 |  | 
13 | STSYSPLASLPLKADTKGFCNISL [PLAGL1] | 2.38 ± 0.2 | 2.27 ± 0.2 |  | 
14 | MAAMETETAPLTLESLPTDPLLLI [FBXO3] | 3.44 ± 0.25 | 3.43 ± 0.18 |  | 
15 | AAPPPLKDDPEGDRDGCVITKVLL [ZBED3] | 3.62 ± 0.27 | 3.62 ± 0.27 |  | 
16 | QLHPPRWYSRLQACQWGGNFLAFS | 2.11 ± 0.45 | 2.26 ± 0.088 |  | 
17 | LGSYKAQKTSRSSSIPCSGSLDGR [PPEF2] | 4.177 ± 0.013 | 4.43 ± 0.14 |  | 
18 | RALARNLIFGLITCLTGVLGVGLG [SPNS1] | 2.28 ± 0.32 | 2.92 ± 0.81 |  | 
19 | TLKCLSHHVADAYTSSQKVSPIQI [TOR1AIP2] | 2.53 ± 0.096 | 2.6 ± 0.37 |  | 
20 | PKPCAGNQGTQITVEDLFYNIATR [MLH1] | 2.85 ± 0.32 | 2.97 ± 0.41 |  | 
21 | PPPSRPSVAVPPPPPNRMYPPPPP [WASL] | 4.48 ± 0.2 | 4.49 ± 0.2 |  | 
22 | KAEILESVIKNYEDHFPLLFSEAS [MAGEA10] | 3.06 ± 0.38 | 3.19 ± 0.51 |  | 
23 | VYTRHGVPISVTGIAQVKIQGQNK [FLOT1] | 2.72 ± 0.12 | 2.63 ± 0.39 |  | 

Row | Sequence | protein stability index [1] | protein stability index [2] | protein stability index (treatment: DMSO, c terminus: native) | protein stability index (treatment: MLN4924 1 uM, 8 h, c terminus: native)
24 | KKVLNHGYDDDNHDYIVRSGERWL [DYRK1B] | 3.27 ± 0.39 | 3.55 ± 0.49 |  | 
25 | PAPEAESKQTEKDPGVQELEALID [EFHC1] | 5.51 ± 0.2 | 5.57 ± 0.17 |  | 
26 | YMTKPSKSLLPHLKTGNSSPGIGA [RTP4] | 3.13 ± 0.13 | 3.22 ± 0.27 |  | 
27 | SQVPTGEVFYYSCEYNFVSPSKSF [CFHR2] | 2.59 ± 0.85 | 2.08 ± 0.26 |  | 
28 | VIVQLHKLRHLDISRDRLSSYYKF [ZER1] | 2.76 ± 0.63 | 2.56 ± 0.45 |  | 
29 | ERVDGRRLVYKFGKNSSGWKEEEV [ELF3] | 4.11 ± 0.37 | 4.39 ± 0.15 |  | 
30 | VSAGGHTLSRPPPAQVPREVLKVQ [TFE3] | 3.95 ± 0.33 | 4.21 ± 0.11 |  | 
31 | QQSQGWVHYMIHEPEPHILLFRRP [CKS1B] | 2.11 ± 0.35 | 1.96 ± 0.22 |  | 
32 | VNVSDRGGRTALHHAALNGHVEMV [ANKRD44] | 3.39 ± 0.43 | 3.24 ± 0.093 |  | 
33 | QQFVIAGVLVEDSNNHHLMLEASE [ZBED1] | 3.5 ± 0.36 | 3.57 ± 0.43 |  | 
34 | YARYHQAFADRDQSERQRHESQQL [TEKT4] | 2.83 ± 0.71 | 3.66 ± 0.64 |  | 
35 | NIIDIYKQESTRPEKKSDQPMCEE [TRIM55] | 5.05 ± 0.26 | 5.02 ± 0.052 |  | 
36 | RRQQAKLKELQAIAERLGCTLPQL [KCNAB2] | 2.99 ± 0.17 | 3.19 ± 0.3 |  | 
37 | VRVLDMVAKLESECLKRQGQREPG [FBXO34] | 4.06 ± 0.29 | 4.17 ± 0.31 |  | 
38 | LREIVHKPGPITLTVAKCWDPSPR [DVL3] | 2.8 ± 0.28 | 2.93 ± 0.32 |  | 
39 | EAGSAGHVEVARLLLENGAGINTH [ANKRD17] | 4.11 ± 0.36 | 4.25 ± 0.26 |  | 
40 | NGTAWTYHSQDELGGFSHWGRLTS [PKD2L1] | 2.38 ± 0.4 | 2.6 ± 0.2 |  | 
41 | ALCATDVKFISNPPSMVAAGSVVA [CCND1] | 2.86 ± 0.28 | 3 ± 0.23 |  | 
42 | SRPTGQQLESLGLLAPGEQSLPCT [KISS1] | 4.29 ± 0.16 | 4.38 ± 0.25 |  | 
43 | QAREKELLELQSQQACTHTKETEQ [CCDC89] | 5.55 ± 0.21 | 5.61 ± 0.17 |  | 
44 | PYSFIEFDTFIQKTKKLYIDSRAR [SEC22B] | 2.38 ± 0.12 | 2.41 ± 0.25 |  | 
45 | ATGLTSGLLSLLLPETLNSPLLET [SLC22A15] | 2.2 ± 0.46 | 2.1 ± 0.23 |  | 
46 | EQPRLEFLMRKCGWFVRELRVEFA [FBXO33] | 2.64 ± 0.34 | 2.12 ± 0.24 |  | 

Row | Sequence | protein stability index [1] | protein stability index [2] | protein stability index (treatment: DMSO, c terminus: native) | protein stability index (treatment: MLN4924 1 uM, 8 h, c terminus: native)
47 | KSLEGDLEDLKDQIAQLEASLAAA [LMNB1] | 4.48 ± 0.23 | 4.23 ± 0.44 |  | 
48 | CQMFLGKTEAEIAHIALETLEGHQ [FLOT1] | 3.36 ± 0.43 | 3.37 ± 0.13 |  | 
49 | WVFGTSFLPFLLCAVLLSAVQAQA [FADS1] | 3.09 ± 0.6 | 2.51 ± 0.12 |  | 
50 | SVNISLDNLLPGMQPSKPQQPSLN [CLINT1] | 3.4 ± 0.23 | 3.51 ± 0.16 |  | 
51 | LFLGRILSLTSSASRLLTTALTSF [FANCE] | 2.44 ± 0.1 | 2.27 ± 0.19 |  | 
52 | GNRILDEKEQEKMRQDLEEERVAL [PKD2L1] | 5.24 ± 0.74 | 5.57 ± 0.27 |  | 
53 | HSMHKYQPRIHLVRAAQLCSQHWG [TBX6] | 2.14 ± 0.2 | 2.22 ± 0.3 |  | 
54 | GSRPACQLQVPTLRQQCAQVLRNN [ELOA2] | 4.43 ± 0.14 | 4.51 ± 0.3 |  | 
55 | LPPPPPPSRGGNQLPRPPIVGGNK [WAS] | 5.11 ± 0.6 | 5.01 ± 0.33 |  | 
56 | FLVMKGQEGAASKVLGRLRALSDT [SLC2A12] | 2.27 ± 0.45 | 2.44 ± 0.39 |  | 
57 | AVIAQQRRKPDPPKDENERSTCNV [DLC1] | 5.24 ± 0.21 | 5.12 ± 0.19 |  | 
58 | VRDMMANFHLNDLEAPHEDDAEGE [TCF25] | 5.48 ± 0.13 | 5.3 ± 0.31 |  | 
59 | DDGSQDPEVLDRESRDRPSCAPSA [PWWP2B] | 5.43 ± 0.17 | 5.21 ± 0.13 |  | 
60 | PFSECGEAVSDSTPFLTNHGAHKA [ZNF263] | 4.76 ± 0.24 | 4.93 ± 0.32 |  | 
61 | KREEEALEERRLSRGEIPTLQRS [PKD2L1] |  |  | 5.33 ± 0.22 | 5.23 ± 0.28
62 | CETTLFALRMATWNQILDPWVYIL [PTGFR] | 2.89 ± 0.16 | 2.93 ± 0.6 |  | 
63 | CLVCGDVASGYHYGVASCEACKAF [ESRRA] | 3.96 ± 0.32 | 3.94 ± 0.23 |  | 
64 | KGVQQKRPSEAQSVILRRYFLELT [DENND6A] | 2.47 ± 0.098 | 2.57 ± 0.22 |  | 
65 | VPRTLSPHQYHSVHGVGMVPEWSD [TBX5] | 3.62 ± 0.25 | 3.77 ± 0.16 |  | 
66 | VDIKPANMEELTEVITAAEFHPHH [PPP2R2B] | 4.47 ± 0.34 | 4.42 ± 0.58 |  | 
67 | GLQAQIASSGLTVEVDAPKSQDLA [KRT18] | 4.77 ± 0.35 | 4.94 ± 0.47 |  | 
68 | RCNTTCGRGVKKRLVLCMELANGK [ADAMTSL2] | 3.22 ± 0.21 | 3 ± 0.13 |  | 
69 | RNLDGTLGYLLDKETLRLHPDIFL [ZER1] | 2.13 ± 0.27 | 2.05 ± 0.17 |  | 

Row | Sequence | protein stability index [1] | protein stability index [2] | protein stability index (treatment: DMSO, c terminus: native) | protein stability index (treatment: MLN4924 1 uM, 8 h, c terminus: native)
70 | SAPQQNGQPLRPLVPDASKQRLME [PDLIM7] | 4.73 ± 0.34 | 4.89 ± 0.33 |  | 
71 | VKKCIFLLFINHRLVESTSLRKAI [MLH1] | 3.14 ± 0.47 | 2.97 ± 0.73 |  | 
72 | VRYNAEKKKVGNYYTTPIYRFRMK [YJU2B] | 2.57 ± 0.17 | 2.86 ± 0.35 |  | 
73 | LEHGADPTVKDLIGGFTALHYAAM [ASB7] | 2.5 ± 0.45 | 2.54 ± 0.38 |  | 
74 | GVPQIWEKIHEMVKKNSAKSMGLK [ACSBG2] | 2.09 ± 0.21 | 2.53 ± 0.046 |  | 
75 | LVENIIDIYKQECSSRPLQKGSHP [TRIM63] | 2.36 ± 0.17 | 2.56 ± 0.13 |  | 
76 | NVRDRDSGRNGEVSLDISPDLPFQ [PCDHGC5] | 4.76 ± 0.42 | 4.59 ± 0.22 |  | 
77 | PLGSPSPRPRRAKRFASLSRFVET [ADAMTS4] | 3.5 ± 0.28 | 3.41 ± 0.21 |  | 
78 | RDLKTQNILLDKHRMVVKIGDFGI [NEK8] | 2.24 ± 0.18 | 2.24 ± 0.16 |  | 
79 | ELSAIGSDTTPLPSWAALNSSTWG [SNX8] | 2.94 ± 0.36 | 2.75 ± 0.18 |  | 
80 | IEPRERAKFKRKYKVKLVEKRAFR [NOP53] | 2.87 ± 0.14 | 3.15 ± 0.32 |  | 
81 | QLENEQSQENSINPIQKEEDEGVD [SPANXN3] | 5.56 ± 0.22 | 5.67 ± 0.2 |  | 
82 | LACRLTPDMETKLLFMTSRVRFGQ [INTS3] | 2.2 ± 0.16 | 2.23 ± 0.22 |  | 
83 | TTISYLPHAPPFAGGHPAQLGLGR [JUNB] | 2.72 ± 0.2 | 2.61 ± 0.26 |  | 
84 | WEEAQSPANCPACREPSPKMDFKT [TRIM43] | 4.56 ± 0.076 | 4.83 ± 0.25 |  | 
85 | EESGSSSASEEEDTKPKPTKRKRK [INTS3] | 5.55 ± 0.17 | 5.57 ± 0.29 |  | 
86 | RQFEFYLEEMILPLMVASAQSGER [BTBD10] | 2.58 ± 0.64 | 3.2 ± 0.43 |  | 
87 | CIHDHHCGSQLSSTKGSRSNLSTR [NETO1] | 3.04 ± 0.52 | 3.33 ± 0.37 |  | 
88 | ITEALRPAGVGVVVEATHMCMVMR [GCH1] | 2.11 ± 0.38 | 2.29 ± 0.33 |  | 
89 | MAAEIHSRPQSSRPVLLSKIEGHQ [WDFY1] | 3.84 ± 0.13 | 3.88 ± 0.23 |  | 
